Values belong to the substance of their own block, whether it stands above or below them.
Assays:
[1] = molecular target: MART-1 peptide on HLA-A*02:01 (human); test: SPR, Biacore 3000, TCR amine-coupled to a CM5 chip, refolded pMHC injected up to 100 micromolar, 1:1 Langmuir model (Fig. 4); soluble, other
[2] = molecular target: MART-1 peptide on HLA-A*02:01 (human); test: SPR, Biacore 3000, TCR amine-coupled to a CM5 chip, refolded pMHC injected, 25 C, 1:1 Langmuir model; Table 2 draws on Fig. 2 and published work (PMID: 24550723); soluble, other
[3] = molecular target: MART-1 peptide on HLA-A*02:01 (human); test: SPR, Biacore 3000, TCR amine-coupled to a CM5 chip, refolded pMHC injected up to 100 micromolar, 25 C, 1:1 Langmuir model (Fig. 2); soluble, other
[4] = molecular target: MART-1 peptide on HLA-A*02:01 (human); test: SPR, Biacore 3000, TCR amine-coupled to a CM5 chip, refolded pMHC injected up to 100 micromolar, 1:1 Langmuir model (Fig. 4); weaker than αD26Y/βL98W (0.024) and wild-type DMF5 (9.5); soluble, other
[5] = molecular target: MART-1 peptide on HLA-A*02:01 (human); test: SPR, Biacore 3000, TCR amine-coupled to a CM5 chip, refolded pMHC injected, 25 C; the same value stands in Table 2 r6, where the peptide is printed as AAG; soluble, other

- Kd [2]: 460 nM
- Kd [3]: 4500 nM
Substance: DMF5 TCR αD26Y

- Kd [4]: 556000 nM
Substance: DMF5 TCR αD26Y/αY50A/βL98W

- Kd [1]: 660 nM
Substance: DMF5 TCR αD26Y/αY50W/βL98W

Continued, substance first:

Substance: DMF5 TCR αD26Y/αY50V/βL98W
- Kd [1]: 7140 nM

Substance: DMF5 TCR βL98W
- Kd [2]: 2900 nM

Substance: DMF5 TCR αD26Y/βL98W
- Kd [5]: 24 nM

Substance: DMF5 TCR αD26Y/αY50F/βL98W
- Kd [1]: 640 nM

From patent EP3172325B1
